Test [1] concerns the target T1, Fc chimera of recombinant human type II BMP receptor BMPRII (human, UniProt Q13873).
T1 sequence: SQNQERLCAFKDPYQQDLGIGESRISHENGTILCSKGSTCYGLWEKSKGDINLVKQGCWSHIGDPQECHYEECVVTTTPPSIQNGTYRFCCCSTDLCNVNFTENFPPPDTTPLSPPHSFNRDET
As to the kind of experiment: SPR.

The target of test [2] is T2, recombinant human ACTRIIA-Fc (human, UniProt P27037). As to the kind of experiment: SPR.
The target of test [3] is T1, Fc chimera of recombinant human type II …. The experiment in a line: BLI.
The target of test [4] is T2, recombinant human ACTRIIA-Fc. The experiment in a line: BLI.

T2 sequence (P27037 20-135): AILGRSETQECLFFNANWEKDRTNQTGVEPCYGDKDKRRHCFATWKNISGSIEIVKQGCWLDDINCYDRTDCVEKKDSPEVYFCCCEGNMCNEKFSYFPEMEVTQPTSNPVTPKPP

B1: recombinant human GDF3 (ligand)
chain: AAIPVPKLSCKNLCHRHQLFINFRDLGWHKWIIAPKGFMANYCHGECPFSLTISLNSSNYAFMQALMHAVDPEIPQAVCIPTKLSPISMLYQDNNDNVILRHYEDMVVDECGCG
B1: the binding result in test [1] and in test [2] was “binds” throughout.

B2: recombinant mouse GDF3 (ligand)
chain: AAISVPKGFCRNFCHRHQLFINFQDLGWHKWVIAPKGFMANYCHGECPFSMTTYLNSSNYAFMQALMHMADPKVPKAVCVPTKLSPISMLYQDSDKNVILRHYEDMVVDECGCG
With B2, the binding result in test [3] and in test [4] was “binds” each time.

The values above are taken from article doi:10.1101/2022.11.07.515236 (bioRxiv, 2022).
